The values that follow come from paper PMC12852032.

The target in experiment [1] is recombinant rat C2 (rat). Briefly: Meso Scale Discovery (electrochemiluminescence plate binding assay); rat C2 coated on the plate; serial dilutions of antibody; binding and washing at pH 7.4 + 1.25 mM Ca2+.
For experiment [2], the target named is recombinant rat C2 (rat). The experiment in a line: Meso Scale Discovery (electrochemiluminescence plate binding assay); rat C2 coated on the plate; serial dilutions of antibody; binding and washing at pH 7.4; detection with Sulfo-tag goat anti-human IgG.

B1: empasiprubart (antibody, V domains shown)
VH: EVQLVQSGAEVKKPGASVKVSCKASGYTFTDYNMDWVRQATGQGLEWIGDINPNYESTGYNQKFKGRATMTVDKSISTAYMELSSLRSEDTAVYYCAREDDHDAFAYWGQGTLVTVSS
VL: DNVLTQSPDSLAVSLGERATISCRASKSVRTSGYNYMHWYQQKPGQPPKLLIYLASNLKSGVPDRFSGSGSGTDFTLTISSLQAEDAATYYCQHSRELPYTFGQGTKLEIK
For B1, the figures for the maximum MSD signal in the experiment with recombinant rat C2 (rat) [1] and with recombinant rat C2 (rat) [2] were 24700 and 12000, respectively.
